From the nanobody polyreactivity screen of Harvey et al. (2022)

Test: yeast display, Sf9 membrane polyspecificity reagent, FACS + sequencing; frameworks hold sequencing errors
Procedure, shortened: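 Genes from sorted yeast were amplified by colony PCR, read by MiSeq 2 × 250 sequencing and filtered on CDR length. These cells carried a synthetic nanobody library in Saccharomyces cerevisiae BJ5465 and were sorted by FACS into low and high (top ~1%) gates on anti-HA and streptavidin fluorescence. Polyreactivity is labelled according to the gate of origin.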

Sequence | polyreactivity (PSR sort gate)
QVQLVESGGGLVQEGGSLRLSCAASGFIFSSNDMGWYRQPPGKERELVAVISRSGGRTYYADSVKGRFTISRDNAKNTVYLQMNSLKPEDTSVYYCNKKDRLGHSGRDYWGQGTQVTVSS | high polyreactivity
QVQLVESGGGLVQEGGSLRLSCAASGFIVSYYTMGWYRQAPGKERELVAAIRSSGGSTYADSVKGRFTISRDNAKNTVYLQMNSLKPEDTAVYYCAAVQTWRWVYARDYWGQGTQVTVSS | high polyreactivity
QVQLVESGGGLVQEGGSLRLSCAASGFTIRTYAMGWYRQAPGKERELVAAINTGGGTNYADSVKGRFTISRDNAKNTVYLQMNSLKPEDTAVYYCNSVHYYYYYWYSLYDSWGKGTQVTVSS | high polyreactivity
QVQLVESGGGLVQEGGSLRLSCAASGGIFGWYAMGWYRQAPGKERELVATITWRGGRTYYADSVKGRFTISRDNEKNTVYLQMNSLKPEDTAVYYCNAEWLWYDAGYRYTIRDSWGQGTQVTVSS | low polyreactivity
QVQLVESGGGLVQEGGSLRLSCAASGGTFYNYAMGWYRQAPGKERELVAAITYSGGITYYADSVKGRFTISRDNAKNTVYLQMNRLKPEDTAVYYCAADGYGNYDQYGYWGQGTQVTVSS | low polyreactivity
QVQLVESGGGLVQEGGSLRLSCAASGIIFGYNAMGWYRQAPGKERELVAAISRRGGTTYYADSVKGRLTISRDNSKNTVYLQMNSLKPEDTAVYYCAAQWSPTEHEYNYSGQGTQVTVSS | low polyreactivity
QVQLVESGGGLVQEGGSLRLSCAASGIIFYYNAMGWYRQAPGKERELVARITWRAGSTYYADSVKGRFTISRDNAKNTVYLQMNSLKPEDTAVYYCNADHDGLGYYYWGQGTQVTVSS | high polyreactivity
QVQLVESGGGLVQEGGSLRLSCAASGITFLQYAMGWYRQAPGKERELVAVISRGSRTYYADSVKGRFTISRDNAKNTVYLQMNCLQPDDTAVYYCAAVRGLALGYDYWGQGTQVTVSS | high polyreactivity
QVQLVESGGGLVQEGGSLRLSCAASGLICQHNARVWSRHAPGKERELVAAISRSAGSSYYADSEKGRFTISRDNAKNTVYLQMNCLKPEDTAVFYCAKRPTPTTKDDTVRYGYWGQGSQVTVSS | low polyreactivity
QVQLVESGGGLVQEGGSLRLSCAASGLIFYDNMGWYRQAPGKERELVAAISSSGGSTSYADSVKGRFTISRDNAKNTVYLQMNSLKPEDTAVYYCAADSYPAYLGFVGFDYWGQGTQVTVSS | low polyreactivity
QVQLVESGGGLVQEGGSLRLSCAASGNTLRVYAMGRYRQAPGTERELVAAISSSGGSTYYADSVKGRFTISRDNAKNTVYLQMYSLKPEDTAVYYCAKDNGPWFAYDYWGQGTQVTVSS | low polyreactivity
QVQLVESGGGLVQEGGSLRLSCAASGRIFATYVMGWYRQAPGKERELVAAISRRGSSTYYADSVKGRFTISRDNAKNTVYLQMNSLKPEDTAVYYCAAVHKVGWSRHYDYWGLGTQVTVSS | high polyreactivity
QVQLVESGGGLVQEGGSLRLSCAASGRIFTPYAMGWYRQAPGKERELVAVIRDGSTYYADSVKGRFTISRDNAKNTVYLQMNSLKPEDTAVYYCRYDIWVWWSGAYDYWGQGTQVTVSS | low polyreactivity
QVQLVESGGGLVQEGGSLRLSCAASGRLFGTYTMGWYRQAPGKERELVAAISWSGGNTYYADSVKGRFTISRDNAKNTVYLQMNSLKPEDTAVYYCNALYYRPPKWYGYWGQGTQVTVSS | high polyreactivity
QVQLVESGGGLVQEGGSLRLSCAASGRTFAHYAMGWYKQAPGKERELVAAISWSGGSTYYADSVKGRFTISRDNPKNTVYLQMNILKPEDTGVYYCNTLGGTEYGYWGPGTQVTVSS | high polyreactivity
QVQLVESGGGLVQEGGSLRLSCAASGRTFGVYAMGWYRQAPGKESTYYADSVKGRFTISRDNAKNTVYLQMNSQKQEDTAVYYCAADEWYYIDPSDDYWGQGSQVTVSS | low polyreactivity
QVQLVESGGGLVQEGGSLRLSCAASGRTFWQNAMGWYRQAAGKERELVAAIRIGGSTNYAVSVKGRFTISRDNAKNTVYLQMNSLKPEYTAFYYCAARRGYYSRNDYWGQVTQVTVSS | high polyreactivity
QVQLVESGGGLVQEGGSLRLSCAASGRTLRYNDMGWYRQAPGKERELVAAISTRGGSTYYADSVKGRFTISRDNAKNTVYLQMYSLKPEDTAVYYCAVTPRIPGHFEDYYWGQGTQVTVSS | low polyreactivity
QVQLVESGGGLVQEGGSLRLSCAASGSIFFYYAMGWYRQAPGKERELVAAITSSGDSTYYADSVKGRFTISRDNAKNTVYLQMNSLKPVETAVYYCAALYIGYTGYYYWGQGTQVTVSS | low polyreactivity
QVQLVESGGGLVQEGGSLRLSCAASGSIFLFYAMGWYRPAPGKERELVARITSSGGTTYYADSVKGRFTISRDNAKNTVYLQMNSLKPEDTAVYYCAAAYIRRSPYYYWGQGTQVTVSS | high polyreactivity
QVQLVESGGGLVQEGGSLRLSCAASGSIFRKYAMGWYRQAPGKERELVAVITTDGSTNYADSVKGRFTISRDNAKNSVYLQMNSMNPEDTAVYYCNAVRSSIGTDIDYWGQGTQVTGSS | low polyreactivity
QVQLVESGGGLVQEGGSLRLSCAASGSIFSIYAMGWYRQAPGKERELVAAIDSGTSTTYADSVKGRFTISRDNAKNTVYLQMNSLKPEDTAVYYCAAALYSDVAAVATYGYYWGQGTQVTVSS | low polyreactivity

Sequence | polyreactivity (PSR sort gate)
QVQLVESGGGLVQEGGSLRLSCAASGSIFYRNAMGWYRQAPGKERELVAAISSDGSTNYADSVKGRFTISRDNAKNTVYLHMNSLKPEDTAVYYCAAPWTQILDYWGQGTQVTVSS | low polyreactivity
QVQLVESGGGLVQEGGSLRLSCAASGSTFPGNAMGWYRQAPGKERELVAAIRDRGTSTYYADSVKGRFTISRDNAKNTVYLQMNSLKPEDTAVYYCAAASRVAKGRWRLYDYWGQGTQVTVSS | high polyreactivity
QVQLVESGGGLVQEGGSLRLSCAASGSTFRHNAMGRYRQAPGKERELVAVITDGASTNYADSVKGRFTISRDNAKNTVYLQMNSLKPEDTAVYYCAAYHRGYYTGREYYYWGQGTQVTVSS | low polyreactivity
QVQLVESGGGLVQEGGSLRLSCAASGSTFYIYGMGWYRQAPGKERELVARISSGGSTYADSVKGRFTISRDNAKNTVYLQMYSLKPEDTAVYYCAAAAARTYRRYRYEGYFYWGQGTQVTVSS | high polyreactivity
QVQLVESGGGLVQEGGSLRLTCAASGIIFTINAMGWYRQAPGKERELVAAIYWGTGTTYYADSVKGRFTISRDNAKNTVYLQMNSLKPEDTAVYYCAADGYDTYGYWGQGTQVTVSS | low polyreactivity
QVQLVESGGGLVQEGGSLRVSCAASGRIFANNAMAGYRQAPGKERELLAAISWSGGNTYYADSVKGRFTISRDNAKNTVYVQMNSLKPDDTAVYYCGAGSPRYSNNYVSYKGWDYSCGQGTQVTVSS | high polyreactivity
QVQLVESGGGLVQEGRSLRLSCAASGRIFCFNVMGWYRQAPGKERELVATISGRTGSTYYADSVKGRFTISRDNAKNTVYLQMNSLKPEVTAVYYCNAVRTVNDYHYDYWGQVTQVTVSS | high polyreactivity
QVQLVESGGGLVQGGGSLRLSCAASGINFSVYPMGWYRQAPGKERELVAAISVGGGRTYYAYSVKGRFTISRDYAKNTFYLEMNSLKAEDTAVYYCDARLGTRQYKMDYWGQGTQVTVSS | high polyreactivity
QVQLVESGGGLVQGGGSLRLSCAASGLIFARNAMGWYRQAPGKERELVAAISKRGGSTFYADSVKGRFTISRDNAKKTVYLQMNSLKPEDTAVYYCHARSSETWHGDYWGQGTQLTVSS | high polyreactivity
QVQLVESGGGLVQGGGSLRLSCAASGRTFQRYAMGWYRQAPGKERELVAAISNRGGSTYYADSVKGRFTISRDNAKNTVYLQMNSLKPEDTAVYYCRTSTPRRVSGNYWGQGTQVTVSS | high polyreactivity
QVQLVESGGGLVQGGGSLRLSCAASGSTFSRYAMGWYRPAPGKERELVAAITGTGGRTYYADSVKGRFTISRANAKNTVYLQRNSLKPEDTAVYYCAAQRWTVKYNYWGQGTQVTVSS | high polyreactivity
QVQLVESGGGLVQGGGSLRLSCAASGSTIPSYAMGCYRQAPGKERELVASITYSDGTTRYADSVKGRFTISRDHAKNPVYLQMNSLIPEDTELYSCNAVYYREGMDYWGQGTQVTVSS | low polyreactivity
QVQLVESGGGLVQGGGSLRLSCDASGLTFPSNAMRWYRQATAKERELVASINRRGTSTFYADSVKGRFTISRDNAKNTFYLQMNSMKPEDTAVYYCNAYEGAAIRSTGRYDYWGHGTQVTVSS | low polyreactivity
QVQLVESGGGLVQGGGSLRLSFAGSGFTFGRYLMGWYSQAPGKERELVAAISRSGGSTHYADSVKGRFTISRDYAMNHFYLQMNSLKPEDTAVYYCAAASPRWPGQGDYWGQGTQVTVSS | high polyreactivity
QVQLVESGGGLVQPGGRLRISCAASGRIFGRYAMGWYRLEPGKERELVAAITSSGGNTYYADSVKGRFTISRDNAKNTVYLQMNSMKPEDTAVYYCIARSARSRRQSDYWGQGTHVTVSS | high polyreactivity
QVQLVESGGGLVQPGGRLRLSCAASGFTFHDYAMGWYRPAPGKERELVAAITKSGGRTYYADSVKGRFTISRDNAKNTVYLQMNSLKPEDTAVYFCAAASYRSQYDYYYWGQGTQVTVSS | high polyreactivity
QVQLVESGGGLVQPGGSLRLSCAASGIIFGYYAMGWYRQAPGKERVLDAAISWSGGSTYYADSVKGRVTISRDNAKNTVYFQMNSLKPEDTAVYYCAAVVRRKSGNDTWRYNYWGQGTQVTVSS | high polyreactivity
QVQLVESGGGLVQPGGSLRLSCAASGLTFDDNAKGWYRHAPGKERELVAAISKSGDGTYYADSVKGRFTISRDNAKNTVYLHMNSLKPEDTAVYYCNADAKYWRYVYWWFGDDYWGQGTQVTVSS | low polyreactivity
QVQLVESGGGLVQPGGSLRLSCAASGLTFPWYAMGWYRQAPGQERELVAAITNSDGNTFADSVKGRFTISRDNAKNSVYLQMNSLKAEDTAVYSCATDTRSLAYYYWGQGTQVTVSS | low polyreactivity
QVQLVESGGGLVQPGGSLRLSCAASGNTFANYAMGWYRQAPGKERELVAAITSNGGSTYYADSVKGRFTISRDNAKNTVFLQMNSLKPEDTAVYYCAADAAYYSGYDYWGQGTQVTVSS | low polyreactivity
QVQLVESGGGLVQPGGSLRLSCAASGRISSYYAMGWYRQAPGKERELVAAISNAGSTKYADSVKGRFTISRDNAKNTVYLQMNRLKPEDTAVYYCNARSYRWSWVLRYDYWGKGTQVTVSS | high polyreactivity
